Measured values: IntAct's records for PubMed 17187064

B1: A-type voltage-gated potassium channel KCND3 (Homo sapiens), Q9UK17 (parent)
chain: MAAGVAAWLPFARAAAIGWMPVANCPMPLAPADKNKRQDELIVLNVSGRRFQTWRTTLERYPDTLLGSTEKEFFFNEDTKEYFFDRDPEVFRCVLNFYRTGKLHYPRYECISAYDDELAFYGILPEIIGDCCYEEYKDRKRENAERLMDDNDSENNQESMPSLSFRQTMWRAFENPHTSTLALVFYYVTGFFIAVSVITNVVETVPCGTVPGSKELPCGERYSVAFFCLDTACVMIFTVEYLLRLFAAPSRYRFIRSVMSIIDVVAIMPYYIGLVMTNNEDVSGAFVTLRVFRVFRIFKFSRHSQGLRILGYTLKSCASELGFLLFSLTMAIIIFATVMFYAEKGSSASKFTSIPASFWYTIVTMTTLGYGDMVPKTIAGKIFGSICSLSGVLVIALPVPVIVSNFSRIYHQNQRADKRRAQKKARLARIRVAKTGSSNAYLHSKRNGLLNEALELTGTPEEEHMGKTTSLIESQHHHLLHCLEKTTGLSYLVDDPLLSVRTSTIKNHEFIDEQMFEQNCMESSMQNYPSTRSPSLSSHPGLTTTCCSRRSKKTTHLPNSNLPATRLRSMQELSTIHIQGSEQPSLTTSRSSLNLKADDGLRPNCKTSQITTAIISIPTPPALTPEGESRPPPASPGPNTNIPSIASNVVKVSAL
partner: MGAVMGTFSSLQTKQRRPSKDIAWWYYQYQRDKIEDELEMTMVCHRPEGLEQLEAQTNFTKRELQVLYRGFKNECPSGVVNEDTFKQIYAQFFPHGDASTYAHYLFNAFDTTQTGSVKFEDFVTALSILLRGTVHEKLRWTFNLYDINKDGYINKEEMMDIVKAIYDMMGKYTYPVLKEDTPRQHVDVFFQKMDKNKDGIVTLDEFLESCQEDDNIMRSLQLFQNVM
B2: A-type potassium channel modulatory protein KCNIP1 (Homo sapiens), Q9NZI2 (parent)
chain: B1 partner
partner: B1 chain

Variants of: B1
Conditions: with kcip1_human KCNIP1, Q9NZI2

Variant | effect of a mutation on the interaction
W8E;P10E;A15E | disrupting interaction

Variants of: B2
Conditions: with kcnd3_human KCND3, Q9UK17

Variant | effect of a mutation on the interaction
MGAVMGTFSSLQTKQRRPSKDIAWWYYQYQRDKIEDELEMTMVCHRPEGLEQLEAQTNFTKRELQVLYRGFKNECPSGVVNEDTFKQIYAQFFPHGDASTYAHYLFNAFDTTQTGSVKFEDFVTALSILLRGTEHEKLRWTFNLYDINKDGYINKEEMMDIVKAIYDMMGKYTYPVLKEDTPRQHVDVFFQKMDKNKDGIVTLDEFLESCQEDDNIMRSLQLFQNVM [V134E] | disrupting interaction
